From publication PMC4908242, “Functional Characterization of a Small-Molecule Inhibitor of the DKK1-LRP6 Interaction” (ISRN Molecular Biology, 2012)

What was measured:
[1] = molecular target: T1, Full-length human LRP6-Fc tagged (R&D Systems) (human, UniProt O75581 20-1613); experiment: SPR; Biacore T100. LRP6-Fc immobilised by amine coupling on a CM3 chip (3000 RU); DKK1 3-54 nM injected for 180 sec; HBS-EP+ pH 7.4, 25°C; apparent KD calculated as kd/ka; conditions: both partners purified
[2] = molecular target: T1, Full-length human LRP6-Fc tagged (R&D …); experiment: SPR; Biacore T100. LRP6-Fc (0.5 μg/mL) captured on Protein A that was amine-coupled to a CM3 chip; DKK1 3-54 nM injected; HBS-EP+ pH 7.4, 25°C; apparent KD; conditions: both partners purified

T1 sequence (O75581 20-1613): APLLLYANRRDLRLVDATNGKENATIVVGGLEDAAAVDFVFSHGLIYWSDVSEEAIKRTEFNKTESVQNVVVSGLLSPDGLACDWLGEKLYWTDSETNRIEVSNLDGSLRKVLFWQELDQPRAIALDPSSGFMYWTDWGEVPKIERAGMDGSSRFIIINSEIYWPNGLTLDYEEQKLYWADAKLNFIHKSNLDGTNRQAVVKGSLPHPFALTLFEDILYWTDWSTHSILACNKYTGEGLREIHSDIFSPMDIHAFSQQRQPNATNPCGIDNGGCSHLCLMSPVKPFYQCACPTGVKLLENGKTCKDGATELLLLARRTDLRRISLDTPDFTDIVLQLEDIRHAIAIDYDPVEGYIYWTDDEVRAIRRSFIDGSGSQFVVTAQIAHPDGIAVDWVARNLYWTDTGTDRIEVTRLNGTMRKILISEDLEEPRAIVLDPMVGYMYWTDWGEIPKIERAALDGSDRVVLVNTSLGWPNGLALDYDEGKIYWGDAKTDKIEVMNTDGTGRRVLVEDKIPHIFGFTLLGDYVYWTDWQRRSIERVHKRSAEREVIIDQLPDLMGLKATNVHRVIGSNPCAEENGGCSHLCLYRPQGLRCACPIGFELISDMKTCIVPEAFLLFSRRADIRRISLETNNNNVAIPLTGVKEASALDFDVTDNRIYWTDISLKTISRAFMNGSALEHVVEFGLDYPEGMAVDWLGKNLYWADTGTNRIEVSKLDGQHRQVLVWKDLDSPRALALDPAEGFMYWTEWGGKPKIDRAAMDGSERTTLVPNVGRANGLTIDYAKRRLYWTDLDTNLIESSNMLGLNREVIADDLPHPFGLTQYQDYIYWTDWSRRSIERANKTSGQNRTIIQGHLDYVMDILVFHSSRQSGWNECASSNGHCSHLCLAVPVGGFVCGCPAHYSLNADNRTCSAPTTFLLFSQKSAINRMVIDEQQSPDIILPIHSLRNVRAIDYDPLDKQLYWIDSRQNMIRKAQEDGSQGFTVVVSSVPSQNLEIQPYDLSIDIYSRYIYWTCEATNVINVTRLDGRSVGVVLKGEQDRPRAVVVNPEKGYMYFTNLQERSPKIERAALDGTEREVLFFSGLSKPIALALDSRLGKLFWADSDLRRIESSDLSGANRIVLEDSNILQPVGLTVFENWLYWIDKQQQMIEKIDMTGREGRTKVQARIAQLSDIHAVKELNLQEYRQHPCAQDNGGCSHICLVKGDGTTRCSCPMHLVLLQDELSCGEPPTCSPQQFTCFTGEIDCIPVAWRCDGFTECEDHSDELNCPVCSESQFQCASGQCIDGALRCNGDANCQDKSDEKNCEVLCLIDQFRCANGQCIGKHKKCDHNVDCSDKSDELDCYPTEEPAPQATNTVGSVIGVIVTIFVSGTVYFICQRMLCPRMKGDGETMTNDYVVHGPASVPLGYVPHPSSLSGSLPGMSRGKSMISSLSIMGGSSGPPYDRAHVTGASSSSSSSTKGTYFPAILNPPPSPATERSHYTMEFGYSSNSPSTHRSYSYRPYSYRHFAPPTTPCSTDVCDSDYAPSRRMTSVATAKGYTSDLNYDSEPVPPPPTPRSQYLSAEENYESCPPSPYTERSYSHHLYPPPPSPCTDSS

Kd [1]: 0.349 nM
koff [1]: 0.00183 s⁻¹
kon [1]: 5.26e+06 M⁻¹ s⁻¹
Kd [2]: 0.84 nM
B1: Commercial purified recombinant human DKK1 (ligand, UniProt O94907 32-266, looked up)
chain: TLNSVLNSNAIKNLPPPLGGAAGHPGSAVSAAPGILYPGGNKYQTIDNYQPYPCAEDEECGTDEYCASPTRGGDAGVQICLACRKRRKRCMRHAMCCPGNYCKNGICVSSDQNHFRGEIEETITESFGNDHSTLDGYSRRTTLSSKMYHTKGQEGSVCLRSSDCASGLCCARHFWSKICKPVLKEGQVCTKHRRKGSHGLEIFQRCYCGEGLSCRIQKDHHQASNSSRLHTCQRH
notes: Dickkopf 1 (DKK1), human, commercial recombinant protein; Neither catalogue number nor construct limits are printed; also called Dickkopf 1; commercial recombinant DKK1; source: bought: R&D Systems, purified recombinant
